From patent publication US20170157250A1

Assays:
[1] = target: human AXL (full length, on cells) (human (Homo sapiens)) (UniProt P30530); test: flow cytometry, A431 cells, without Gas6; mean (s.d.)
[2] = target: human AXL (full length, on cells) (human (Homo sapiens)) (UniProt P30530); test: flow cytometry, A431 cells pre-incubated with 10 µg/mL Gas6 (competitor)
[3] = target: human AXL (full length, on cells) (human (Homo sapiens)) (UniProt P30530); test: flow cytometry, A431 cells pre-incubated with Gas6 (competitor); mean (s.d.)
[4] = target: human AXL (full length, on cells) (human (Homo sapiens)) (UniProt P30530); test: flow cytometry, A431 cells pre-incubated with 10 µg/mL Gas6 (competitor); mean (s.d.)
[5] = target: human AXL (full length, on cells) (human (Homo sapiens)) (UniProt P30530); test: flow cytometry, A431 cells pre-incubated with Gas6 (competitor); mean (s.d.); less accurate due to low binding
[6] = target: human AXL (full length, on cells) (human (Homo sapiens)) (UniProt P30530); test: flow cytometry, A431 cells pre-incubated with 10 µg/mL Gas6 (competitor); mean (s.d.); less accurate due to low binding

human AXL (full length, on cells) (human (Homo sapiens)), sequence (P30530 26-894 limits assumed): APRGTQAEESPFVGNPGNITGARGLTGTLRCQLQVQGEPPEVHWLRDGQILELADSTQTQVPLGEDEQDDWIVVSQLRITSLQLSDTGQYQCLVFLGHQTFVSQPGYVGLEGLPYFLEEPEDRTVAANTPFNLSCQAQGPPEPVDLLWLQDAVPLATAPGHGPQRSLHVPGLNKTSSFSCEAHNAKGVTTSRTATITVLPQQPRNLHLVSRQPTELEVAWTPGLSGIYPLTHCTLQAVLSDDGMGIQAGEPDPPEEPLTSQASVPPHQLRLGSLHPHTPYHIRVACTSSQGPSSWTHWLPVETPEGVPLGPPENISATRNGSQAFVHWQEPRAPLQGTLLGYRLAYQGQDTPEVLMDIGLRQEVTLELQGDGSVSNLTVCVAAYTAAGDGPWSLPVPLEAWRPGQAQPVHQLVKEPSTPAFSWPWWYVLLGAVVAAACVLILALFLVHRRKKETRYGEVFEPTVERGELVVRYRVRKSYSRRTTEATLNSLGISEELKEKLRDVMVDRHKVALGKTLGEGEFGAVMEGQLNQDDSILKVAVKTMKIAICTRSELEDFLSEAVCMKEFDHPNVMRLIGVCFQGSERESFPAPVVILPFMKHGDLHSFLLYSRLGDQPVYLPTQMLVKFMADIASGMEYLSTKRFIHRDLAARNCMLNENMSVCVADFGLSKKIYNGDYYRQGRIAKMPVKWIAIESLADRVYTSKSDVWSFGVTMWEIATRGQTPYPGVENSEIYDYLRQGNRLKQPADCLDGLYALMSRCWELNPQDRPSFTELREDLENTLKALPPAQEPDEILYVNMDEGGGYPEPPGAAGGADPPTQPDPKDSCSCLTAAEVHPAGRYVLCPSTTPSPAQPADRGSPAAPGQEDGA

EC50 [1]: 0.09 µg/mL
fold change of EC50 with Gas6 pre-incubation against without Gas6 [2]: 21 fold
maximal binding in presence of Gas6 (% of binding without Gas6) [2]: 19%
maximal binding in presence of Gas6 (% of binding in absence of Gas6) [3]: 41%
maximal binding in presence of Gas6 (% of binding in absence of Gas6) [4]: 41%
EC50 [5]: 1.9 µg/mL
EC50 [6]: 1.9 µg/mL
B1: YW327.6S2 (antibody, from another filing, V domains shown)
VH: EVQLVESGGGLVQPGGSLRLSCAASGFSLSGSWIHWVRQAPGKGLEWVGWINPYRGYAYYADSVKGRFTISADTSKNTAYLQMNSLRAEDTAVYYCAREYSGWGGSSVGYAMDYWGQGTLVTVSS
VL: DIQMTQSPSSLSASVGDRVTITCRASQDVSTAVAWYQQKPGKAPKLLIYSASFLYSGVPSRFSGSGSGTDFTLTISSLQPEDFATYYCQQSYTTPPTFGQGTKVEIK
